The values below come from US20260008848A1, “ANTI-NECTIN-4 ANTIBODY, AND ANTIBODY-DRUG CONJUGATE AND USE THEREOF” (Bio-Thera Solutions, Ltd., priority 2022, published 2026).

For test [1], the target named is T1, human Nectin-4 extracellular antigen (Nectin-4-His) (Homo sapiens, UniProt Q96NY8).
T1 construct: albumin signal peptide (replaces the native Nectin-4 signal peptide) (N); made in house
T1 sequence (Q96NY8 with tags, fused parts or gaps): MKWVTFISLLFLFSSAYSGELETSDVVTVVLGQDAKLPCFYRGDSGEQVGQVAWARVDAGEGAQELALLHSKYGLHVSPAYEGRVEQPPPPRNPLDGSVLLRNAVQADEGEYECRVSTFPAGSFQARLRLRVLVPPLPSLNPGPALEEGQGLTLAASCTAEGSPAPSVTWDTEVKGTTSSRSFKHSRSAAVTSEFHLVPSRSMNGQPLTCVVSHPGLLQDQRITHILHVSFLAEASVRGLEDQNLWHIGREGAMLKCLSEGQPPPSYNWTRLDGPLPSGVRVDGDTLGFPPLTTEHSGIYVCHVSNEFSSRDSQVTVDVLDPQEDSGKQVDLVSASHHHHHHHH
Briefly: Affinity measurement by SPR (BIAcore T200, Protein A chip capture). The class given is binding. The conditions noted are these: 1:1 model fit. The method, then: (§1) The candidate antibodies (ASG-22 and ASG-AM) were analyzed for their affinity for the human Nectin-4 extracellular antigen using surface plasmon resonance (SPR) technology (BIAcore: GE Healthcare, T200).
(§2) The capture was conducted on a Protein A chip (Cat #29127556, GE Healthcare): Antibody dilutions ([…]) were directed through the experimental flow channels (Fc2 and Fc4) at a flow rate of 10 μL/min for 10 s. Then antigen Nectin-4-His (prepared from Example 1) dilutions at different concentrations (0 nM, 1.23 nM, 3.7 nM, 11.1 nM, 33.3 nM, and 100 nM) were sequentially introduced with the flow rate adjusted to 30 μL/min through the surfaces of the experimental flow channels (Fc2 and Fc4) and reference flow channels (Fc1 and Fc3) with 120 s of association and 180 s of dissociation. Finally, the chip regenerated in Glycine 1.5. Fitting and analysis were performed using BiaEvaluation 3.2, with a 1:1 model for the fitting.
For orientation: In SPR one partner is held on a chip, and binding of the other changes the refractive index at the surface.

The subject of test [2] is T-47D cells. Briefly: Endocytosis assay by FACS (antibody remaining on cell surface). The test is classed as cell-based, human. The conditions noted are these: 10 μg/mL antibody. As for the experimental part: The relative quantity of antibodies remaining on the cell surface after incubation at 37° C. for a certain period was detected by FACS to reflect the efficiency of endocytosis. The method is briefly described as follows: T-47D cells (human ductal breast carcinoma cells, sourced from the Cell Bank of the Chinese Academy of Sciences, Cat. No.: TCHu 87) were used. Each test antibody was adjusted to a concentration of 10 μg/mL and co-incubated with cells (at a density of 0.5×10^6 cells/mL) on ice for 1 h for binding. The cells were washed thrice with pre-cooled PBS and then incubated at 37° C. for 0 h, 2 h, and 4 h. The endocytosis reaction was terminated with 0.2% N3Na, and the cells were washed thrice with PBS. Subsequently, a PE-labeled anti-human Fc secondary antibody (Invitrogen 12-4998-82) was added, and the cells were incubated at 4° C. for 30 min. The red fluorescence signal was detected by a flow cytometer.
On the technique in general: Flow cytometry measures light scatter and fluorescence of single cells or particles in a stream.

The subject of test [3] is T-47D cells. The test is described as follows: Binding of antibody to T-47D cells by FACS. Set-up: species or system human. The conditions noted are these: 3-fold dilutions from 100 nM, 4° C. The method, then: (§3) The binding activity of antibody ASG-AM to T-47D cells (human ductal breast carcinoma cells, sourced from the Cell Bank of the Chinese Academy of Sciences, Cat. No.: TCHu 87) was detected by FACS and compared with that of the reference antibody ASG-22. The EC50 of the binding of candidate antibodies to the cells was analyzed using the four-parameter method. The method is briefly described as follows: T-47D cells were digested with pancreatin. Each candidate antibody was serially 3-fold diluted from 100 nM and co-incubated with T-47D cells at 4° C. for 0.5-1 h. Subsequently, a PE-labeled anti-human Fc secondary antibody (Invitrogen, 12-4998-82) was added. The signal intensity of the red fluorescence was detected by a flow cytometer. Graphpad Prism was used for plotting and calculating the EC50.

The target of test [4] is T1, human Nectin-4 extracellular antigen (Nectin-4-His). The test is described as follows: Affinity measurement by BLI (Octet QKe, Protein A biosensor). The class given is binding. The method, then: (§4) The affinity of candidate antibodies (ASG-22 and ASG-AM) for the human Nectin-4 extracellular antigen was detected using the bio-layer interferometry (BLI) technology on the Octet platform (Fortebio, Octet QKe).
(§5) Antibodies were loaded onto a Protein A biosensor (Fortebio, 18-5010) at a concentration of 20 μg/mL with a loading time of 60 s. Nectin-4-His antigen concentrations were set at 200 nM, 100 nM, 50 nM, 25 nM, and 0 nM. The antigen association time was 180 s, and the dissociation time was 200 s. Data were then processed and analyzed using Acquisition 8.2 to give affinity constants (see Table 4).
For orientation: BLI is a label-free optical method that tracks binding on a fibre tip over time.

Test [5] deals with T2, human Nectin-4 extracellular antigen Nectin-4-His (human, UniProt Q96NY8 32-349).
T2 construct: the secreted protein in the assay lacks the signal peptide
T2 sequence: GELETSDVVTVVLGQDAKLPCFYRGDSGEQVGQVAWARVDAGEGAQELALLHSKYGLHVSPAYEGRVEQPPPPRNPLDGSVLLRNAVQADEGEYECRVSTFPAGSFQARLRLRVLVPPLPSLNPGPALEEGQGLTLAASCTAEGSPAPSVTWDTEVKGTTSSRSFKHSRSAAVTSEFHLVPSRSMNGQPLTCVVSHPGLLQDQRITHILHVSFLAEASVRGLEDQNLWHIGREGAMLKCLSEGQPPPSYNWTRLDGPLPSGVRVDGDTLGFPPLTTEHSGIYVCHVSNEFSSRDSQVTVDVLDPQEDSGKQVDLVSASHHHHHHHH
The test is described as follows: BLI (Octet QKe), antibody loaded on Protein A biosensor, Nectin-4-His in solution. The method, then:
as §4, §5

Test [6] has as its target T3, Nectin-4 on T-47D cells (human ductal breast carcinoma cells) (human, UniProt Q96NY8 32-510).
T3 construct: whole, on cells; that is inferred from the antibodies' specificity
T3 sequence (looked up): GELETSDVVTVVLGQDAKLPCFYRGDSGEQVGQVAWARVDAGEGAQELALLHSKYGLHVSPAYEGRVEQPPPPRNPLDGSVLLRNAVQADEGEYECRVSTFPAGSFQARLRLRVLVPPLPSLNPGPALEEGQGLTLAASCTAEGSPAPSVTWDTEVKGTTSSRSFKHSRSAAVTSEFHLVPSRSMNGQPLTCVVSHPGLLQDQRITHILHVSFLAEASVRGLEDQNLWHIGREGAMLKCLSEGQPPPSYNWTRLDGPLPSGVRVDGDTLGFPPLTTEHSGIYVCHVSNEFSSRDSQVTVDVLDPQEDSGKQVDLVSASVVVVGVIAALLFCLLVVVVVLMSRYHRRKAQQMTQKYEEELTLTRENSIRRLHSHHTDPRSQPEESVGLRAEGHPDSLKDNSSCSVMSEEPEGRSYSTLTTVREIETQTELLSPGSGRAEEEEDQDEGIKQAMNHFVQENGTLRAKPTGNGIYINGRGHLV
Briefly: FACS on T-47D cells, antibody 3-fold diluted from 100 nM, PE-labeled anti-human Fc secondary antibody, four-parameter fit. As for the experimental part: as §3, with “EC₅₀” for “EC50”, “EC₅₀.” for “EC50.”

The target of test [7] is T2, human Nectin-4 extracellular antigen …. The test is described as follows: SPR (BIAcore T200), antibody captured on Protein A chip, Nectin-4-His as analyte, 1:1 fit. The method, then:
as §1, §2

As usually defined, the kon is a measure of how fast the partners come together. For the molecule “ASG-22: reference anti-Nectin-4 antibody; heavy chain SEQ ID NO: 12, light chain SEQ ID NO: 17 (Table 2) [reference compound]”, in test [1], the Ka came to 606000 M⁻¹ s⁻¹ and the Rmax came to 164.2 RU. This molecule also displayed a Kd in test [1] (dissociation rate) of 0.00523 s⁻¹. Also, in test [2] (37° C. for 0 h), the “red fluorescence signal at 0 h” value was found to be 24098.3. Besides, in test [2] (37° C. for 2 h), the “Endocytosis at 2 h” value was 53.46% and the “red fluorescence signal at 2 h” value was 11216.0. Moreover, in test [2] (37° C. for 4 h), the “Endocytosis at 4 h” value is recorded as 74.97% and the “red fluorescence signal at 4 h” value was 6033. For the same molecule, the “binding curves to T-47D cells” value in test [3] is “substantially consistent”. In test [4], this molecule registered an Rmax of 0.5303, a kdis of 0.00162 s⁻¹ and a kon of 113000 M⁻¹ s⁻¹.

B1: reference antibody ASG-22 (antibody, human IgG1, kappa, V domains shown)
VH: EVQLVESGGGLVQPGGSLRLSCAASGFTFSSYNMNWVRQAPGKGLEWVSYISSSSSTIYYADSVKGRFTISRDNAKNSLSLQMNSLRDEDTAVYYCARAYYYGMDVWGQGTLVTVSS
VL: DIQMTQSPSSVSASVGDRVTITCRASQGISGWLAWYQQKPGKAPKFLIYAASTLQSGVPSRFSGSGSGTDFTLTISSLQPEDFATYYCQQANSFPPTFGGGTKVEIKR
notes: Expressed in HEK293F cells
The koff is the first-order rate constant of dissociation. By EC50 is commonly meant the concentration giving half of the maximal effect. The low end stands for an effect from little substance, the high end for a need for much substance. On to B1, for which, in test [5], the Kd was determined as 14.3 nM, the off-rate constant (koff) came out at 0.00162 s⁻¹ and the association rate constant (kon) came out at 113000 M⁻¹ s⁻¹. Further, in test [6], a half-maximal response (EC50) required 0.752 nM. Besides, in test [7], the Kd is 8.64 nM, the koff turned out to be 0.00523 s⁻¹ and the kon was 606000 M⁻¹ s⁻¹.

B2: anti-Nectin-4 antibody ASG-AM (antibody, human IgG1, kappa, V domains shown)
VH: EVQLVESGGGLVQPGGSLRLSCAASGFTFSSYNMNWVRQAPGKGLEWVSYISSSSSTIYYADSVKGRFTISRDNAKNSLSLQMNSLRDEDTAVYYCARAYYYGMDVWGQGTLVTVSS
VL: DIQMTQSPSSVSASVGDRVTITCRASQGISGWLAWYQQKPGKAPKFLIYAASTLQSGVPSRFSGSGSGTDFTLTISSLQPEDFATYYCQQAGPGWVFGQGTKVEIKR
notes: Expressed in HEK293F cells
In the case of B2, in test [5], the Kd was determined as 0.266 nM, the off-rate constant (koff) came out at 2.38e-05 s⁻¹ and the kon worked out at 89600 M⁻¹ s⁻¹. This molecule gave an EC50 in test [6] of 0.726 nM. Besides, in test [7], the Kd was found to be 1.79 nM, the koff was 0.000535 s⁻¹ and the kon came out at 298000 M⁻¹ s⁻¹.
